Laboratory results reported in article PMC3152195.

Biological target: GST-fusion protein containing the UBA domain of Dsk2p (residues 328–373) (UniProt P48510)
Experiment: pull-down

Chain of UniProt P48510 (P48510 328-373): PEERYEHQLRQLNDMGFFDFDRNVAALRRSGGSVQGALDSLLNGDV

percent of total cellular GLUT4 pulled down by GST–UBA (taken as ubiquitinated): 0.1%
Substance: endogenous GLUT4 in 3T3-L1 adipocytes (ubiquitinated) (from UniProt P14142 1-509) (natural protein)
